The results in this text go back to the Human Domainome abundance scans (Beltran et al. 2025).

± gives the uncertainty stated by the source.

B1: 3'-5' exoribonuclease 1, residues 65 to 114; numbered along this chain, Q8IV48 (parent)
chain: VYKEIAITNGCINRMSKEELRAKLSEFKLETRGVKDVLKKRLKNYYKKQK

The variants in this data set derive from B1. Kind of data set: abundance fitness (aPCA) (normalised: wild type 0, dead -1); higher = more abundant; growth selection in yeast, the domain comes from the species named. As to conditions: Homo sapiens.
In the case of VYKEIAITNGCINRMSKEELRAKLSEFKLETRGVKDVLKKRLKNYYKKIK [Q49I], the abundance fitness is -0.074 ± 0.072.
In the case of VYKEIAITNGCINRMSKEELRAKLSEFKLETRGVKDVLKKRLKNYYKKDK [Q49D] it was -0.353 ± 0.061.
On to VYKEIAITNGCINRMSKEELRAKLSEFKLETRGVKDVLKKRLKNYYKKSK [Q49S], for which the abundance fitness is -0.19 ± 0.04.
Then VYKEIAITNGCINRMSKEELRAKLSEFKLETRGVKDVLKKRLKNYYKKFK [Q49F], with -0.208 ± 0.076; and VYKEIAITNGCINRMSKEELRAKLSEFKLETRGVKDVLKKRLKNYYKKNK [Q49N], with -0.099 ± 0.077; and VYKEIAITNGCINRMSKEELRAKLSEFKLETRGVKDVLKKRLKNYYKKTK [Q49T], with -0.064 ± 0.06.
Then VYKEIAITNGCINRMSKEELRAKLSEFKLETRGVKDVLKKRLKNYYKKKK [Q49K], with -0.083 ± 0.055; and VYKEIAITNGCINRMSKEELRAKLSEFKLETRGVKDVLKKRLKNYYKKEK [Q49E], with -0.192 ± 0.055.
Then VYKEIAITNGCINRMSKEELRAKLSEFKLETRGVKDVLKKRLKNYYKKHK [Q49H], with -0.109 ± 0.032; and VYKEIAITNGCINRMSKEELRAKLSEFKLETRGVKDVLKKRLKNYYKKYK [Q49Y], with -0.065 ± 0.068; and VYKEIAITNGCINRMSKEELRAKLSEFKLETRGVKDVLKKRLKNYYKKQV [K50V], with -0.081 ± 0.23.
VYKEIAITNGCINRMSKEELRAKLSEFKLETRGVKDVLKKRLKNYYKKQD [K50D]: the abundance fitness was -0.347 ± 0.074.
In the case of VYKEIAITNGCINRMSKEELRAKLSEFKLETRGVKDVLKKRLKNYYKKQI [K50I], the abundance fitness was -0.157 ± 0.07.
Then VYKEIAITNGCINRMSKEELRAKLSEFKLETRGVKDVLKKRLKNYYKKQM [K50M], with -0.216 ± 0.094; and VYKEIAITNGCINRMSKEELRAKLSEFKLETRGVKDVLKKRLKNYYKKQA [K50A], with -0.159 ± 0.12; and VYKEIAITNGCINRMSKEELRAKLSEFKLETRGVKDVLKKRLKNYYKKQT [K50T], with -0.179 ± 0.06.
Then VYKEIAITNGCINRMSKEELRAKLSEFKLETRGVKDVLKKRLKNYYKKQH [K50H], with -0.164 ± 0.059; and VYKEIAITNGCINRMSKEELRAKLSEFKLETRGVKDVLKKRLKNYYKKQQ [K50Q], with -0.123 ± 0.073.
Then VYKEIAITNGCINRMSKEELRAKLSEFKLETRGVKDVLKKRLKNYYKKQE [K50E], with -0.13 ± 0.091; and VYKEIAITNGCINRMSKEELRAKLSEFKLETRGVKDVLKKRLKNYYKKQW [K50W], with -0.052 ± 0.12; and VYKEIAITNGCINRMSKEELRAKLSEFKLETRGVKDVLKKRLKNYYKKQG [K50G], with -0.299 ± 0.12.
For VYKEIAITNGCINRMSKEELRAKLSEFKLETRGVKDVLKKRLKNYYKKQN [K50N], the abundance fitness was -0.06 ± 0.048.
Then VYKEIAITNGCINRMSKEELRAKLSEFKLETRGVKDVLKKRLKNYYKKQR [K50R], with -0.089 ± 0.071; and VYKEIAITNGCINRMSKEELRAKLSEFKLETRGVKDVLKKRLKNYYKKQY [K50Y], with -0.162 ± 0.058.
As for VYKEIAITNGCINRMSKEELRAKLSEFKLETRGVKDVLKKRLKNYYKKQP [K50P], the abundance fitness was -0.201 ± 0.32.
Then VYKEIAITNGCINRMSKEELRAKLSEFKLETRGVKDVLKKRLKNYYKKQL [K50L], with -0.058 ± 0.09; and VYKEIAITNGCINRMSKEELRAKLSEFKLETRGVKDVLKKRLKNYYKCQK [K48C], with -0.323 ± 0.049.
In the case of VYKEIAITNGCINRMSKEELRAKLSEFKLETRGVKDVLKKRLKNYYKLQK [K48L] it was -0.264 ± 0.036.
Turning to VYKEIAITNGCINRMSKEELRAKLSEFKLETRGVKDVLKKRLKNYYKDQK [K48D], the abundance fitness was -0.329 ± 0.059.
Turning to VYKEIAITNGCINRMSKEELRAKLSEFKLETRGVKDVLKKRLKNYYKWQK [K48W], the abundance fitness is -0.393 ± 0.043.
In the case of VYKEIAITNGCINRMSKEELRAKLSEFKLETRGVKDVLKKRLKNYYKAQK [K48A] it was -0.187 ± 0.041.
Then VYKEIAITNGCINRMSKEELRAKLSEFKLETRGVKDVLKKRLKNYYKFQK [K48F], with -0.51 ± 0.074; and VYKEIAITNGCINRMSKEELRAKLSEFKLETRGVKDVLKKRLKNYYKNQK [K48N], with -0.164 ± 0.06; and VYKEIAITNGCINRMSKEELRAKLSEFKLETRGVKDVLKKRLKNYYKHQK [K48H], with -0.213 ± 0.064.
In the case of VYKEIAITNGCINRMSKEELRAKLSEFKLETRGVKDVLKKRLKNYYKTQK [K48T] it was -0.175 ± 0.055.
Take VYKEIAITNGCINRMSKEELRAKLSEFKLETRGVKDVLKKRLKNYYKYQK [K48Y]: the abundance fitness is -0.279 ± 0.059.
Then VYKEIAITNGCINRMSKEELRAKLSEFKLETRGVKDVLKKRLKNYYKQQK [K48Q], with -0.211 ± 0.059; and VYKEIAITNGCINRMSKEELRAKLSEFKLETRGVKDVLKKRLKNYYKRQK [K48R], with -0.072 ± 0.036.
In the case of VYKEIAITNGCINRMSKEELRAKLSEFKLETRGVKDVLKKRLKNYYKSQK [K48S] it was -0.158 ± 0.041.
Then VYKEIAITNGCINRMSKEELRAKLSEFKLETRGVKDVLKKRLKNYYKPQK [K48P], with -0.87 ± 0.061.
In the case of VYKEIAITNGCINRMSKEELRAKLSEFKLETRGVKDVLKKRLKNYYKVQK [K48V], the abundance fitness was -0.432 ± 0.038.
Then VYKEIAITNGCINRMSKEELRAKLSEFKLETRGVKDVLKKRLKNYYKMQK [K48M], with -0.22 ± 0.057; and VYKEIAITNGCINRMSKEELRAKLSEFKLETRGVKDVLKKRLKNYYKIQK [K48I], with -0.611 ± 0.085; and VYKEIAITNGCINRMSKEELRAKLSEFKLETRGVKDVLKKRLKNYYKGQK [K48G], with -0.25 ± 0.035.
